Patent US20240117018A1

Legend:
Assay in all cases: cell-based or functional assay
[1] = biological target: HIV-1 Env of pseudovirus 1006_11_C3_1601 (HIV-1)
[2] = biological target: HIV-1 Env of pseudovirus 231965.c01 (HIV-1)
[3] = biological target: HIV-1 Env of pseudovirus 249M B10 (HIV-1)
[4] = biological target: HIV-1 Env of pseudovirus 3016.v5.c45 (HIV-1)
[5] = biological target: HIV-1 Env of pseudovirus 620345.c01 (HIV-1)
[6] = biological target: HIV-1 Env of pseudovirus 62357_14_D3_4589 (HIV-1)
[7] = biological target: HIV-1 Env of pseudovirus 6535.3 (HIV-1)
[8] = biological target: HIV-1 Env of pseudovirus 6545.v4.c1 (HIV-1)
[9] = biological target: HIV-1 Env of pseudovirus 6952.v1.c20 (HIV-1)
[10] = biological target: HIV-1 Env of pseudovirus 9004SS_A3_4 (HIV-1)
[11] = biological target: HIV-1 Env of pseudovirus A07412M1.vrc12 (HIV-1)
[12] = biological target: HIV-1 Env of pseudovirus CAAN5342.A2 (HIV-1)
[13] = biological target: HIV-1 Env of pseudovirus CAP210.2.00.E8 (HIV-1)
[14] = biological target: HIV-1 Env of pseudovirus CNE19 (HIV-1)
[15] = biological target: HIV-1 Env of pseudovirus CNE20 (HIV-1)
[16] = biological target: HIV-1 Env of pseudovirus CNE21 (HIV-1)
[17] = biological target: HIV-1 Env of pseudovirus CNE5 (HIV-1)
[18] = biological target: HIV-1 Env of pseudovirus Ce1176_A3 (HIV-1)
[19] = biological target: HIV-1 Env of pseudovirus Ce703010054_2A2 (HIV-1)
[20] = biological target: HIV-1 Env of pseudovirus Du156.12 (HIV-1)
[21] = biological target: HIV-1 Env of pseudovirus HIV-0013095-2.11 (HIV-1)
[22] = biological target: HIV-1 Env of pseudovirus HIV-001428-2.42 (HIV-1)
[23] = biological target: HIV-1 Env of pseudovirus MS208.A1 (HIV-1)
[24] = biological target: HIV-1 Env of pseudovirus Q23.17 (HIV-1)
[25] = biological target: HIV-1 Env of pseudovirus Q259.d2.17 (HIV-1)
[26] = biological target: HIV-1 Env of pseudovirus QH0692.42 (HIV-1)
[27] = biological target: HIV-1 Env of pseudovirus REJO4541.67 (HIV-1)
[28] = biological target: HIV-1 Env of pseudovirus SC05_8C11_2344 (HIV-1)
[29] = biological target: HIV-1 Env of pseudovirus SC422661.8 (HIV-1)
[30] = biological target: HIV-1 Env of pseudovirus T278-50 (HIV-1)
[31] = biological target: HIV-1 Env of pseudovirus THRO4156.18 (HIV-1)
[32] = biological target: HIV-1 Env of pseudovirus WEAU_d15_410_787 (HIV-1)
[33] = biological target: HIV-1 Env of pseudovirus X1254_c3 (HIV-1)
[34] = biological target: HIV-1 Env of pseudovirus ZM135M.PL10a (HIV-1)
[35] = biological target: HIV-1 Env of pseudovirus ZM197M.PB7 (HIV-1)
[36] = biological target: HIV-1 Env of pseudovirus ZM233M.PB6 (HIV-1)
[37] = biological target: HIV-1 Env of pseudovirus ZM247v1(Rev-) (HIV-1)

Substance: PGT128 (antibody)
- neutralization IC50 [1]: 0.011 µg/mL
- neutralization IC80 [1]: 0.04 µg/mL
- IC50 (Titer in TZM.bl cells) [2]: > 50 µg/mL
- IC80 (Titer in TZM.bl cells) [2]: > 50 µg/mL
- neutralization IC50 [3]: 7.87 µg/mL
- neutralization IC80 [3]: > 50 µg/mL
- IC50 (Titer in TZM.bl cells) [4]: > 50 µg/mL
- IC80 (Titer in TZM.bl cells) [4]: > 50 µg/mL
- IC50 (Titer in TZM.bl cells) [5]: > 50 µg/mL
- IC80 (Titer in TZM.bl cells) [5]: > 50 µg/mL
- neutralization IC50 [6]: 1.14 µg/mL
- neutralization IC80 [6]: > 50 µg/mL
- neutralization IC50 [7]: 0.004 µg/mL
- neutralization IC80 [7]: 0.016 µg/mL
- IC50 (Titer in TZM.bl cells) [8]: > 50 µg/mL
- IC80 (Titer in TZM.bl cells) [8]: > 50 µg/mL
- IC50 (Titer in TZM.bl cells) [9]: > 50 µg/mL
- IC80 (Titer in TZM.bl cells) [9]: > 50 µg/mL
- neutralization IC50 [10]: 0.002 µg/mL
- neutralization IC80 [10]: 0.01 µg/mL
- IC50 (Titer in TZM.bl cells) [11]: > 50 µg/mL
- IC80 (Titer in TZM.bl cells) [11]: > 50 µg/mL
- neutralization IC50 [12]: 0.514 µg/mL
- neutralization IC80 [12]: > 50 µg/mL
- neutralization IC50 [13]: > 50 µg/mL
- neutralization IC80 [13]: > 50 µg/mL
- neutralization IC50 [14]: > 50 µg/mL
- neutralization IC80 [14]: > 50 µg/mL
- neutralization IC50 [15]: 0.001 µg/mL
- neutralization IC80 [15]: 0.004 µg/mL
- neutralization IC50 [16]: 0.01 µg/mL
- neutralization IC80 [16]: 0.026 µg/mL
- IC50 (Titer in TZM.bl cells) [17]: 0.018 µg/mL
- IC80 (Titer in TZM.bl cells) [17]: 0.253 µg/mL
- neutralization IC50 [18]: 0.009 µg/mL
- neutralization IC80 [18]: 0.026 µg/mL
- neutralization IC50 [19]: > 50 µg/mL
- neutralization IC80 [19]: > 50 µg/mL
- neutralization IC50 [20]: 0.017 µg/mL
- neutralization IC80 [20]: 0.046 µg/mL
- neutralization IC50 [21]: > 50 µg/mL
- neutralization IC80 [21]: > 50 µg/mL
- neutralization IC50 [22]: 0.026 µg/mL
- neutralization IC80 [22]: 0.095 µg/mL
- neutralization IC50 [23]: > 50 µg/mL
- neutralization IC80 [23]: > 50 µg/mL
- neutralization IC50 [24]: 0.009 µg/mL
- neutralization IC80 [24]: 0.024 µg/mL
- neutralization IC50 [25]: > 50 µg/mL
- neutralization IC80 [25]: > 50 µg/mL
- neutralization IC50 [26]: 0.029 µg/mL
- neutralization IC80 [26]: 0.081 µg/mL
- neutralization IC50 [27]: > 50 µg/mL
- neutralization IC80 [27]: > 50 µg/mL
- neutralization IC50 [28]: 0.017 µg/mL
- neutralization IC80 [28]: 0.041 µg/mL
- neutralization IC50 [29]: 1.08 µg/mL
- neutralization IC80 [29]: 18.4 µg/mL
- IC50 (Titer in TZM.bl cells) [30]: 0.031 µg/mL
- IC80 (Titer in TZM.bl cells) [30]: 0.089 µg/mL
- neutralization IC50 [31]: > 50 µg/mL
- neutralization IC80 [31]: > 50 µg/mL
- neutralization IC50 [32]: 0.032 µg/mL
- neutralization IC80 [32]: 0.153 µg/mL
- IC50 (Titer in TZM.bl cells) [33]: > 50 µg/mL
- IC80 (Titer in TZM.bl cells) [33]: > 50 µg/mL
- neutralization IC50 [34]: > 50 µg/mL
- neutralization IC80 [34]: > 50 µg/mL
- neutralization IC50 [35]: > 50 µg/mL
- neutralization IC80 [35]: > 50 µg/mL
- neutralization IC50 [36]: > 50 µg/mL
- neutralization IC80 [36]: > 50 µg/mL
- neutralization IC50 [37]: 0.021 µg/mL
- neutralization IC80 [37]: 0.081 µg/mL
